Laboratory results as given in patent publication US10513547B2, “Peptides and combination of peptides and scaffolds thereof for use in immunotherapy against colorectal carcinoma (CRC) and other cancers” (Immatics Biotechnologies GmbH, priority 2015, dated 2019).

How the values were obtained:
CD8+ T-cells = test: In vitro T-cell priming assay with aAPCs loaded with peptide/MHC and anti-CD28, pMHC multimer readout; type: cell-based, human; conditions: for Wells positive [%]: HLA-A*02 restricted peptides, positive wells among evaluable; for donors (in vitro immunogenicity, positive donors) / wells (in vitro immunogenicity, positive wells): HLA class I peptides, healthy donor CD8+ T-cells, multimer staining
Source text: In order to obtain information regarding the immunogenicity of the TUMAPs of the present invention, the inventors performed investigations using an in vitro T-cell priming assay based on repeated stimulations of CD8+ T-cells with artificial antigen presenting cells (aAPCs) loaded with peptide/MHC complexes and anti-CD28 antibody.
In order to perform in vitro stimulations by artificial antigen presenting cells loaded with peptide-MHC complex (pMHC) and anti-CD28 antibody, the inventors first isolated CD8+ T-cells from fresh HLA-A*02 leukapheresis products via positive selection using CD8 microbeads (Miltenyi Biotec, Bergisch-Gladbach, Germany) of healthy donors obtained from the University clinics Mannheim, Germany, after informed consent.
PBMCs and isolated CD8+ lymphocytes were incubated in T-cell medium (TCM) until use consisting of RPMI-Glutamax (Invitrogen, Karlsruhe, Germany) supplemented with 10% heat inactivated human AB serum (PAN-Biotech, Aidenbach, Germany), 100 U/ml Penicillin/100 μg/ml Streptomycin (Cambrex, Cologne, Germany), 1 mM sodium pyruvate (CC Pro, Oberdorla, Germany), 20 μg/ml Gentamycin (Cambrex). 2.5 ng/ml IL-7 (PromoCell, Heidelberg, Germany) and 10 U/ml IL-2 (Novartis Pharma, Nürnberg, Germany) were also added to the TCM at this step.
Generation of pMHC/anti-CD28 coated beads, T-cell stimulations and readout was performed in a highly defined in vitro system using four different pMHC molecules per stimulation condition and 8 different pMHC molecules per readout condition.
The purified co-stimulatory mouse IgG2a anti human CD28 Ab 9.3 (Jung et al., 1987) was chemically biotinylated using Sulfo-N-hydroxysuccinimidobiotin as recommended by the manufacturer (Perbio, Bonn, Germany). Beads used were 5.6 μm diameter streptavidin coated polystyrene particles (Bangs Laboratories, Illinois, USA).
800.000 beads/200 μl were coated in 96-well plates in the presence of 4×12.5 ng different biotin-pMHC, washed and 600 ng biotin anti-CD28 were added subsequently in a volume of 200 μl. Stimulations were initiated in 96-well plates by co-incubating 1×10^6 CD8+ T-cells with 2×10^5 washed coated beads in 200 μl TCM supplemented with 5 ng/ml IL-12 (PromoCell) for 3 days at 37° C. Half of the medium was then exchanged by fresh TCM supplemented with 80 U/ml IL-2 and incubating was continued for 4 days at 37° C. This stimulation cycle was performed for a total of three times. For the pMHC multimer readout using 8 different pMHC molecules per condition, a two-dimensional combinatorial coding approach was used as previously described (Andersen et al., 2012) with minor modifications encompassing coupling to 5 different fluorochromes. Finally, multimeric analyses were performed by staining the cells with Live/dead near IR dye (Invitrogen, Karlsruhe, Germany), CD8-FITC antibody clone SK1 (BD, Heidelberg, Germany) and fluorescent pMHC multimers. For analysis, a BD LSRII SORP cytometer equipped with appropriate lasers and filters was used. Peptide specific cells were calculated as percentage of total CD8+ cells. Evaluation of multimeric analysis was done using the FlowJo software (Tree Star, Oreg., USA). In vitro priming of specific multimer+ CD8+ lymphocytes was detected by comparing to negative control stimulations.

HLA-A*02:01 = HLA-A*02:01 (Homo sapiens, UniProt P04439, D140Y/D185E/D98H/E176V/E277Q/G131W/G231S/I119V/I121R/I166T/I218V/L300P/L318F/N151K/N90K/P208A/P217A/Q86G/Q94H/R138H/R169H/T345S); test: MHC binding assay (UV-ligand exchange, beta2m ELISA, peptide exchange yield); conditions: binding to HLA-A*02:01
Source text: Candidate peptides for T cell based therapies according to the present invention were further tested for their MHC binding capacity (affinity). The individual peptide-MHC complexes were produced by UV-ligand exchange, where a UV-sensitive peptide is cleaved upon UV-irradiation, and exchanged with the peptide of interest as analyzed. Only peptide candidates that can effectively bind and stabilize the peptide-receptive MHC molecules prevent dissociation of the MHC complexes. To determine the yield of the exchange reaction, an ELISA was performed based on the detection of the light chain ([…]) of stabilized MHC complexes. The assay was performed as generally described in Rodenko et al. (Rodenko et al., 2006).
96 well MAXISorp plates (NUNC) were coated over night with 2 ug/ml streptavidin in PBS at room temperature, washed 4× and blocked for 1 h at 37° C. in 2% BSA containing blocking buffer. Refolded HLA-A*02:01/MLA-001 monomers served as standards, covering the range of 15-500 ng/ml. Peptide-MHC monomers of the UV-exchange reaction were diluted 100 fold in blocking buffer. Samples were incubated for 1 h at 37° C., washed four times, incubated with 2 ug/ml HRP conjugated anti-β2m for 1 h at 37° C., washed again and detected with TMB solution that is stopped with […]. Absorption was measured at 450 nm. Candidate peptides that show a high exchange yield (preferably higher than 50%, most preferred higher than 75%) are generally preferred for a generation and production of antibodies or fragments thereof, and/or T cell receptors or fragments thereof, as they show sufficient avidity to the MHC molecules and prevent dissociation of the MHC complexes.

Substance	Peptide exchange (MHC class I binding score, peptide exchange yield) (HLA-A*02:01)	other results
1 (ALIKQLFEA; listed as Homo sapiens) [compound 1]	″+++” (≥50 = +++)	Wells positive [%] (CD8+ T-cells): ″+” (<20% = +)
2 (ALLPRYFFL; listed as Homo sapiens) [compound 2]	“++” (≥20% = ++)	Wells positive [%] (CD8+ T-cells): “++++” (> = 70% = ++++)
3 (RLIPDTLYSV; listed as Homo sapiens) [compound 3]	–	Wells positive [%] (CD8+ T-cells): “+++” (50%-69% = +++)
5 (WLFDDGGLTL; listed as Homo sapiens) [compound 5]	“++++” (≥75% = ++++)	Wells positive [%] (CD8+ T-cells): “++” (20%-49% = ++)
7 (YLTRHLAVL; listed as Homo sapiens) [compound 7]	“++” (≥20% = ++)	Wells positive [%] (CD8+ T-cells): “+” (<20% = +)
9 (ILDDHLSRV; listed as Homo sapiens) [compound 9]	“++” (≥20% = ++)	Wells positive [%] (CD8+ T-cells): “+” (<20% = +)
10 (RMYNKIFAI; listed as Homo sapiens) [compound 10]	“+++” (≥50 = +++)	Wells positive [%] (CD8+ T-cells): “++++” (> = 70% = ++++)
11 (YLFEKTFNM; listed as Homo sapiens) [compound 11]	“+++” (≥50 = +++)	Wells positive [%] (CD8+ T-cells): “+” (<20% = +)
12 (ALVQGILERV; listed as Homo sapiens) [compound 12]	“+++” (≥50 = +++)	Wells positive [%] (CD8+ T-cells): “++++” (> = 70% = ++++)
13 (FLLAEDTKV; listed as Homo sapiens) [compound 13]	“+++” (≥50 = +++)	Wells positive [%] (CD8+ T-cells): “++” (20%-49% = ++)
161 (FLKNELDNV; listed as Homo sapiens) [compound 161]	“+++” (≥50 = +++)	–
162 (KLMDYIDEL; listed as Homo sapiens) [compound 162]	“+++” (≥50 = +++)	–
163 (RLLHEVQEL; listed as Homo sapiens) [compound 163]	“+++” (≥50 = +++)	–
164 (KMLDEILLQL; listed as Homo sapiens) [compound 164]	“++++” (≥75% = ++++)	–
165 (RLLDFPEAMVL; listed as Homo sapiens) [compound 165]	“++++” (≥75% = ++++)	–
166 (GLLEARGILGL; listed as Homo sapiens) [compound 166]	“+++” (≥50 = +++)	–
167 (SVIDHIHLISV; listed as Homo sapiens) [compound 167]	“+++” (≥50 = +++)	–
168 (GLIRFPLMTI; listed as Homo sapiens) [compound 168]	“+++” (≥50 = +++)	–
169 (YLAHFIEGL; listed as Homo sapiens) [compound 169]	“+++” (≥50 = +++)	–
170 (ALAGGITMV; listed as Homo sapiens) [compound 170]	“+++” (≥50 = +++)	–
171 (RLQETEGMVAV; listed as Homo sapiens) [compound 171]	“++” (≥20% = ++)	–

Substance	Peptide exchange (MHC class I binding score, peptide exchange yield) (HLA-A*02:01)	other results
172 (LLLDTVTMQV; listed as Homo sapiens) [compound 172]	“+++” (≥50 = +++)	–
173 (KLGDLMVLL; listed as Homo sapiens) [compound 173]	“+++” (≥50 = +++)	–
174 (ILLDDNMQIRL; listed as Homo sapiens) [compound 174]	“++++” (≥75% = ++++)	–
175 (TLLGGKEAQALGV; listed as Homo sapiens) [compound 175]	“+++” (≥50 = +++)	–
176 (RTLDKVLEV; listed as Homo sapiens) [compound 176]	“++” (≥20% = ++)	–
177 (ALLQGAIESV; listed as Homo sapiens) [compound 177]	“+++” (≥50 = +++)	–
178 (YLFREPATI; listed as Homo sapiens) [compound 178]	“++” (≥20% = ++)	–
179 (RLLSPLSSA; listed as Homo sapiens) [compound 179]	“+++” (≥50 = +++)	–
181 (NLFDLGGQYLRV; listed as Homo sapiens) [compound 181]	“+++” (≥50 = +++)	–
182 (SLNKWIFTV; listed as Homo sapiens) [compound 182]	“++++” (≥75% = ++++)	–
183 (TLQEVVTGV; listed as Homo sapiens) [compound 183]	“+++” (≥50 = +++)	–
184 (SLLDENNVSSYL; listed as Homo sapiens) [compound 184]	“+++” (≥50 = +++)	–
185 (VLYTGVVRV; listed as Homo sapiens) [compound 185]	“+++” (≥50 = +++)	–
186 (KMSEKILLL; listed as Homo sapiens) [compound 186]	“+++” (≥50 = +++)	–
187 (GLHNVVYGI; listed as Homo sapiens) [compound 187]	“+++” (≥50 = +++)	–
188 (FLVDGPRVQL; listed as Homo sapiens) [compound 188]	“+++” (≥50 = +++)	–
189 (AISEVIGKITA; listed as Homo sapiens) [compound 189]	“+++” (≥50 = +++)	–
190 (AMAEMVLQV; listed as Homo sapiens) [compound 190]	“+++” (≥50 = +++)	–
191 (QLFSEIHNL; listed as Homo sapiens) [compound 191]	“++++″ (≥75% = ++++)	–
219 (FLDEKGRCV; listed as Homo sapiens) [compound 219]	–	donors (in vitro immunogenicity, positive donors) (CD8+ T-cells): +++ (50% − 69% = +++); wells (in vitro immunogenicity, positive wells) (CD8+ T-cells): ++ (20% − 49% = ++)
220 (KMDPVAYRV; listed as Homo sapiens) [compound 220]	–	donors (in vitro immunogenicity, positive donors) (CD8+ T-cells): ++++ (>=70% = ++++); wells (in vitro immunogenicity, positive wells) (CD8+ T-cells): +++ (50% − 69% = +++)
